Usually stoichiometry N stands for the number of molecules, sites or subunits per partner or assembly.

Three substances from PMC8495200 can be followed below.

What all share (assay): native gel or EMSA; Blue Native PAGE, purified recombinant non-tagged proteins in 1 x PBS, 1 mM DTT, 1 mM ATP; 4-16% Bis-Tris gels, cold room, Coomassie staining
For orientation: In EMSA bound probe runs differently from free probe, usually more slowly.

The target of assay [1] is UBXD9^261–573, GST tag cleaved (D. discoideum).
In assay [2] the target is UBXD9^331–573, GST tag cleaved (D. discoideum).
Assay [3] concerns the target UBXD9^384–573, GST tag cleaved (D. discoideum).

With “UBXD9^261–573, GST tag cleaved (domain or fragment)”, in assay [1], the stoichiometry N is 6.
“UBXD9^331–573, GST tag cleaved (domain or fragment)”: the stoichiometry N in assay [2] stood at 6.
Turning to “UBXD9^384–573, GST tag cleaved (domain or fragment)”, the stoichiometry N in assay [3] was 6.
